Results on six molecules are retold here after publication PMC3279587.

Holding throughout (assay): EMSA
The target of series [1] is T1, Sumo-Arx (full-length) (Mus musculus, UniProt O35085 1-564).
Series [2] has as its target T2, His-Arx 214-430 (Mus musculus, UniProt O35085 216-432).
The target in series [3] is GST-Arx 286-430 (Mus musculus, UniProt O35085 288-432).
Series [4] deals with T3, GST-Arx 214-430 (Mus musculus, UniProt O35085 216-432).
Series [5] addresses T2, His-Arx 214-430. This is another data set of the same source.
For series [6], the target named is T3, GST-Arx 214-430. The source holds these as a separate data set.
Series [7] addresses T1, Sumo-Arx (full-length). This is another data set of the same source.
The target in series [8] is GST-Arx 286-430 L343Q (Mus musculus, UniProt O35085 288-432, L345Q).
GST-Arx 286-430 L343Q, sequence (O35085 288-432 L345Q): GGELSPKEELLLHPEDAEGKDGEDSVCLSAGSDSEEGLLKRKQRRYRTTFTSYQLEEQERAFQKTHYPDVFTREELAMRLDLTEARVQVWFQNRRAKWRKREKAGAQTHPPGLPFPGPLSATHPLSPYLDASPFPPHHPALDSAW

GST-Arx 286-430, sequence (O35085 288-432): as the sequence (O35085 288-432 L345Q) above, with Q58L counted along it
T3 sequence (O35085 216-432): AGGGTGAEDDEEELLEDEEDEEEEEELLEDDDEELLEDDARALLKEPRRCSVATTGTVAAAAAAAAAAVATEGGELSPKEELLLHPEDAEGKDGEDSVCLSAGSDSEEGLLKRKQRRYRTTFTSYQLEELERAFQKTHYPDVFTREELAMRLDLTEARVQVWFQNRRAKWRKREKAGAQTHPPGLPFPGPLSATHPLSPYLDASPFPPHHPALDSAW
T2 sequence (O35085 216-432): as above
T1 sequence (O35085 whole entry): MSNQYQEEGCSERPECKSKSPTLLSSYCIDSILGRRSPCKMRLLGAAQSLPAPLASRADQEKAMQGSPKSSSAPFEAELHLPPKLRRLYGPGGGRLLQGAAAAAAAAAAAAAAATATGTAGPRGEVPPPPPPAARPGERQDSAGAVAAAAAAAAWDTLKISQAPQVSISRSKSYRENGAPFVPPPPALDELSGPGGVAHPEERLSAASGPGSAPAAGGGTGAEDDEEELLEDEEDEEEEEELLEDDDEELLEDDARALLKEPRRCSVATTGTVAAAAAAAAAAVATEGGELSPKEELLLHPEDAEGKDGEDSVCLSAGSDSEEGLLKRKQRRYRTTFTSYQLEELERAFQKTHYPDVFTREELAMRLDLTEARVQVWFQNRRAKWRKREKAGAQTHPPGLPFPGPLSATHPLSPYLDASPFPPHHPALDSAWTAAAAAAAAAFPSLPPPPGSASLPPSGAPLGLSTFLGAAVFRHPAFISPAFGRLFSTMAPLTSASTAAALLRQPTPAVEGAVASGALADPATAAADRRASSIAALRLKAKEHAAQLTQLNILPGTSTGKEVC

B1: N25 (dsDNA)
DNA 1: GTCTGGCCATTAATGATATCAATTAGC
DNA 2: GCTAATTGATATCATTAATGGCCAGAC
For B1, in series [1], the binding result is given as “no binding”. Moreover, the binding signal was 46 % of strongest probe for this protein in series [2], 81.6 % of strongest probe for this protein in series [3] and 33.6 % of strongest probe for this protein in series [4].

B2: N11 (dsDNA)
DNA 1: GTCTGGCAGTTAATTCGGCTTAGTAGC
DNA 2: GCTACTAAGCCGAATTAACTGCCAGAC
Regarding B2, the binding result in series [5] and in series [6] was “no binding” throughout. Further, the binding signal in series [7] is 100 % of strongest probe for this protein.

B3: N2 (dsDNA)
DNA 1: GTCTGGCAATTAATATATTGCATTTGC
DNA 2: GCAAATGCAATATATTAATTGCCAGAC
For B3, the binding result in series [5], in series [6] and in series [1] was “no binding” in each case.

B4: Lmo1 (dsDNA)
DNA 1: GTAATGAATTGATTTAATTAACAGGGGAGTCTGA
DNA 2: TCAGACTCCCCTGTTAATTAAATCAATTCATTAC
B4: in series [8], the binding result was “no binding”.

B5: N30 (dsDNA)
DNA 1: GTCTGGCCTCTAATTACGCCTAATTGC
DNA 2: GCAATTAGGCGTAATTAGAGGCCAGAC
Turning to B5, the binding signal in series [2] is 100 % of strongest probe for this protein; in series [3], 100 % of strongest probe for this protein; in series [4], 86 % of strongest probe for this protein; in series [7], 38 % of strongest probe for this protein.

B6: N9 (dsDNA)
DNA 1: GTCTGGCTCCTAATTAGTTCGATTAGC
DNA 2: GCTAATCGAACTAATTAGGAGCCAGAC
B6: the binding signal was 97 % of strongest probe for this protein in series [2], 95 % of strongest probe for this protein in series [3], 100 % of strongest probe for this protein in series [4] and 17 % of strongest probe for this protein in series [7].
